Experimental data taken from the supplement of paper PMC11246515.
± gives the standard deviation of the averaged measurements.

Assay: total protein half-life in vivo (active degradation + dilution); higher = more stable protein
[1] = E. coli NCM3722 delta-clpP delta-lon delta-hslV, growth: N-lim chemostat, doubling time 6 h
[2] = E. coli NCM3722 delta-clpP, growth: N-lim chemostat, doubling time 6 h
[3] = E. coli NCM3722 delta-hslV, growth: N-lim chemostat, doubling time 6 h
[4] = E. coli NCM3722 delta-lon, growth: N-lim chemostat, doubling time 6 h
[5] = E. coli NCM3722 delta-smpB, growth: N-lim chemostat, doubling time 6 h
[6] = wild type E. coli NCM3722, growth: C-lim chemostat, doubling time 3 h
[7] = wild type E. coli NCM3722, growth: C-lim chemostat, doubling time 6 h
[8] = wild type E. coli NCM3722, growth: C-lim chemostat, doubling time 12 h
[9] = wild type E. coli NCM3722, growth: N-lim chemostat, doubling time 6 h
[10] = wild type E. coli NCM3722, growth: N-lim chemostat, doubling time 12 h
[11] = wild type E. coli NCM3722, growth: P-lim chemostat, doubling time 6 h
[12] = wild type E. coli NCM3722, growth: P-lim chemostat, doubling time 12 h

| Sequence | total protein half-life in vivo [1] [h] | total protein half-life in vivo [2] [h] | total protein half-life in vivo [3] [h] | total protein half-life in vivo [4] [h] | total protein half-life in vivo [5] [h] | total protein half-life in vivo [6] [h] | total protein half-life in vivo [7] [h] | total protein half-life in vivo [8] [h] | total protein half-life in vivo [9] [h] | total protein half-life in vivo [10] [h] | total protein half-life in vivo [11] [h] | total protein half-life in vivo [12] [h] |
| --- | --- | --- | --- | --- | --- | --- | --- | --- | --- | --- | --- | --- |
| MSAIENFDAHTPMMQQYLRLKAQHPEILLFYRMGDFYELFYDDAKRASQLLDISLTKRGASAGEPIPMAGIPYHAVENYLAKLVNQGESVAICEQIGDPATSKGPVERKVVRIVTPGTISDEALLQERQDNLLAAIWQDSKGFGYATLDISSGRFRLSEPADRETMAAELQRTNPAELLYAEDFAEMSLIEGRRGLRRRPLWEFEIDTARQQLNLQFGTRDLVGFGVENAPRGLCAAGCLLQYAKDTQRTTLPHIRSITMEREQDSIIMDAATRRNLEITQNLAGGAENTLASVLDCTVTPMGSRMLKRWLHMPVRDTRVLLERQQTIGALQDFTAGLQPVLRQVGDLERILARLALRTARPRDLARMRHAFQQLPELRAQLETVDSAPVQALREKMGEFAELRDLLERAIIDTPPVLVRDGGVIASGYNEELDEWRALADGATDYLERLEVRERERTGLDTLKVGFNAVHGYYIQISRGQSHLAPINYMRRQTLKNAERYIIPELKEYEDKVLTSKGKALALEKQLYEELFDLLLPHLEALQQSASALAELDVLVNLAERAYTLNYTCPTFIDKPGIRITEGRHPVVEQVLNEPFIANPLNLSPQRRMLIITGPNMGGKSTYMRQTALIALMAYIGSYVPAQKVEIGPIDRIFTRVGAADDLASGRSTFMVEMTETANILHNATEYSLVLMDEIGRGTSTYDGLSLAWACAENLANKIKALTLFATHYFELTQLPEKMEGVANVHLDALEHGDTIAFMHSVQDGAASKSYGLAVAALAGVPKEVIKRARQKLRELESISPNAAATQVDGTQMSLLSVPEETSPAVEALENLDPDSLTPRQALEWIYRLKSLV | 5.91 ± 0.07 | 5.059 ± 0.028 | 3.51 ± 0.062 | 3.99 ± 0.046 | 3.329 ± 0.022 | 2.84 ± 0.36 | 4.96 ± 0.41 | 9.15 ± 1.4 | 3.7765 ± 0.0035 | 5.56 ± 0.91 | 4.78 ± 0.42 | 7.5 ± 0.22 |
| MSAIEVKNLVKKFHGQTVLHGIDLEVKPGEVVAIIGPSGSGKTTLLRSINLLEQPEAGTITVGDITIDTARSLSQQKSLIRQLRQHVGFVFQNFNLFPHRTVLENIIEGPVIVKGEPKEEATARARELLAKVGLAGKETSYPRRLSGGQQQRVAIARALAMRPEVILFDEPTSALDPELVGEVLNTIRQLAQEKRTMVIVTHEMSFARDVADRAIFMDQGRIVEQGAAKALFADPEQPRTRQFLEKFLLQ |  | 5.314 ± 0.015 | 5.44 ± 0.48 | 6.65 ± 1.8 | 5.38 ± 0.14 | 3.11 ± 0.18 | 5.25 ± 0.71 | 10.2 ± 1.1 | 6.41 ± 1.5 | 9.13 ± 1.8 | 5.16 ± 0.33 | 12.2 ± 1.3 |
| MSANAETQTPQQPVKKSGKRKRLLLLLTLLFIIIAVAIGIYWFLVLRHFEETDDAYVAGNQIQIMSQVSGSVTKVWADNTDFVKEGDVLVTLDPTDARQAFEKAKTALASSVRQTHQLMINSKQLQANIEVQKIALAKAQSDYNRRVPLGNANLIGREELQHARDAVTSAQAQLDVAIQQYNANQAMILGTKLEDQPAVQQAATEVRNAWLALERTRIISPMTGYVSRRAVQPGAQISPTTPLMAVVPATNMWVDANFKETQIANMRIGQPVTITTDIYGDDVKYTGKVVGLDMGTGSAFSLLPAQNATGNWIKVVQRLPVRIELDQKQLEQYPLRIGLSTLVSVNTTNRDGQVLANKVRSTPVAVSTAREISLAPVNKLIDDIVKANAG | 6.17 ± 0.42 | 6.38 ± 0.53 | 6.57 ± 0.12 | 6.37 ± 0.58 | 6.1 ± 0.26 | 2.99 ± 0.1 | 6.37 ± 0.2 | 13.5 ± 1.8 | 6.17 ± 0.1 | 12 ± 0.35 | 6.47 ± 0.29 | 13.6 ± 2.7 |
| MSANTEAQGSGRGLEAMKWVVVVALLLVAIVGNYLYRDIMLPLRALAVVILIAAAGGVALLTTKGKATVAFAREARTEVRKVIWPTRQETLHTTLIVAAVTAVMSLILWGLDGILVRLVSFITGLRF [P0AG96] | 4.72 | 3.93 | 4.78 ± 0.21 | 4.6239 ± 0.0021 | 4.69 ± 0.097 | 2.81 ± 0.067 | 5.11 ± 0.16 | 9.61 | 4.48 ± 0.26 | 8.61 ± 1.6 | 4.43 | 8.75 ± 1.2 |
| MSAQPVDIQIFGRSLRVNCPPDQRDALNQAADDLNQRLQDLKERTRVTNTEQLVFIAALNISYELAQEKAKTRDYAASMEQRIRMLQQTIEQALLEQGRITEKTNQNFE [P0ADS2] |  | > 8 | 6.14 ± 0.47 | 6.82 ± 0.47 | 5.21 ± 0.4 | 3.87 | 6.05 ± 0.48 | 10.5 | 4.5 ± 0.25 | 9.14 ± 1.6 | 5.16 ± 0.74 | 10.8 ± 1 |
| MSASLAILTIGIVPMQEVLPLLTEYIDEDNISHHSLLGKLSREEVMAEYAPEAGEDTILTLLNDNQLAHVSRRKVERDLQGVVEVLDNQGYDVILLMSTANISSMTARNTIFLEPSRILPPLVSSIVEDHQVGVIVPVEEMLPVQAQKWQILQKSPVFSLGNPIHDSEQKIIDAGKELLAKGADVIMLDCLGFHQRHRDLLQKQLDVPVLLSNVLIARLAAELLV [P0AE28] | 3.97 | 2.28 |  |  | 1.41 | 2.32 ± 0.053 | 3.15 ± 0.55 | 3.7 | 1.67 ± 0.018 |  |  | 7.89 |
